± gives the uncertainty stated by the source.
Experiment: protein stability index of a GFP-peptide fusion (yeast GPS) (PSI 1-4); higher = more stable; sorted into four equal gates, so the index is relative within each strain
Summary of the method: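 Tiled 17-residue yeast protein peptides were fused downstream of GFP in a plasmid that also expresses Cherry, and the pooled library was carried in yeast. Mid-log cultures in leucine-free medium were sorted into four equal gates by GFP/Cherry fluorescence ratio, and plasmids from each gate were PCR-amplified and Illumina-sequenced, with reads assigned to strains by barcodes. The protein stability index for each peptide was each gate's read frequency times its gate number, summed.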

Sequence | protein stability index (doa10∆) | protein stability index (pdr5∆) | protein stability index (san1∆) | protein stability index (ubr1∆)
TGVVYNVTKSSVGVIIN [RPL21A] | 2.07 ± 0.09 | 2.6 ± 0.057 | 1.95 ± 0.095 | 2.18 ± 0.067
FEQTAFSRHAQQQTSTF [SIR4] | 1.94 ± 0.07 | 2.32 ± 0.092 | 1.79 ± 0.093 | 2.01 ± 0.055
VFLEFSLNFIPITASTS [YML103C/NUP188] | 1.27 ± 0.068 | 1.34 ± 0.049 | 1.62 ± 0.097 | 1.48 ± 0.038
LNEIKEHKIVVLGNSRG [RPN14] | 3.57 ± 0.19 |  | 3.18 ± 0.15 | 
TNKDNKAELIKPIQNGE [ARP9] | 3.34 ± 0.071 | 3.14 ± 0.083 | 3.4 ± 0.046 | 3.16 ± 0.072
NQTNINSLAVRGKDCTV [SCL1] | 2.83 ± 0.14 | 3.26 ± 0.088 | 3.29 ± 0.068 | 3.19 ± 0.12
TFSWLNAELLDYLFHLL [YLR018C/POM34] | 1.64 ± 0.075 | 1.47 ± 0.039 | 1.46 ± 0.14 | 1.4 ± 0.044
SKTHKTVSRAYGGSRCA [RPL34A] | 2.68 ± 0.071 | 2.91 ± 0.054 | 2.82 ± 0.064 | 2.85 ± 0.048
VHVIHFQHADNSSMRYG [AAR2] | 2.73 ± 0.081 | 2.7 ± 0.073 | 2.32 ± 0.11 | 2.53 ± 0.055
ERHQKQLNEKLVGRLRK [YCS4] | 3.19 ± 0.12 | 3.18 ± 0.11 | 3.02 ± 0.06 | 3 ± 0.065
YIDEMYNHNDGGDGRDY [RRI1] | 2.47 ± 0.1 | 3.26 ± 0.1 | 3.3 ± 0.21 | 2.75 ± 0.13
VADEEANIELTWAEGTF [RPC37] | 2.06 ± 0.067 | 2.98 ± 0.087 | 1.81 ± 0.097 | 2.52 ± 0.071
SEAEYSKDIETLKKEWL [YIL149C/MLP2] | 3.26 ± 0.083 | 3.04 ± 0.085 | 3.13 ± 0.051 | 3 ± 0.049
ELAGDEELEAEQIDVFS [PRP8] | 3.43 ± 0.079 | 3.27 ± 0.13 | 3.08 ± 0.12 | 2.82 ± 0.13
QREDKLKSHYYQTCKNS [SMC2] | 1.24 ± 0.073 | 1.25 ± 0.057 | 1.63 ± 0.071 | 1.42 ± 0.054
WIQVFGLRTENVLDYFA [MED6] |  |  | 2.38 ± 0.14 | 2.34 ± 0.067
VDNVTLESYKTQAKKLY [SRP72] | 3.02 ± 0.11 | 2.87 ± 0.14 |  | 2.89 ± 0.11
SNESQNGKDSEIMYTGV [SMC3] | 3.46 ± 0.14 | 3.13 ± 0.27 | 3.03 ± 0.19 | 
AKLRKELVETSEVRKAV [FAS2] | 2.7 ± 0.16 |  |  | 1.38 ± 0.25
SESDLDEDKNFPRSRSR [ESC2] | 2.98 ± 0.087 | 3.24 ± 0.08 | 3.32 ± 0.059 | 3.28 ± 0.054
AGENAPSIVFIDEIDAI [RPT2] | 2.03 ± 0.17 | 2.46 ± 0.21 | 1.74 ± 0.18 | 1.86 ± 0.14
RKGGPATAEKLPNIYPS [RPT2] | 2.89 ± 0.13 | 3.54 ± 0.25 | 2.81 ± 0.13 | 
AHRVRDLMDEELRKHAQ [SKI6] | 3.14 ± 0.14 | 3.39 ± 0.12 | 2.83 ± 0.12 | 3.29 ± 0.064
LIGRPPLLVPGMTPCTV [FAS1] | 1.32 ± 0.071 | 1.82 ± 0.079 | 1.81 ± 0.11 | 2.15 ± 0.06
ELTSFSSQPLEPLSDTE [DSN1] | 3.34 ± 0.11 | 3.12 ± 0.096 | 3.29 ± 0.065 | 3.21 ± 0.076
LEEFEFKHGPMSLINDA [SMD2] | 3.32 ± 0.073 | 3.22 ± 0.062 | 3.14 ± 0.059 | 3.23 ± 0.055

Sequence | protein stability index (doa10∆) | protein stability index (pdr5∆) | protein stability index (san1∆) | protein stability index (ubr1∆)
AFVPKKRKTNIIMFVGL [SRP54] | 2.03 ± 0.1 | 2.16 ± 0.088 | 1.86 ± 0.18 | 2.26 ± 0.051
LIPCKYLNRHADFFVRE [RPN7] | 2.62 ± 0.092 | 2.49 ± 0.12 | 2.18 ± 0.19 | 2.81 ± 0.11
NNTEKNDVTNKNINIGK [SIR4] | 2.1 ± 0.055 | 2.21 ± 0.052 | 2.9 ± 0.043 | 2.37 ± 0.044
QHEQQKQQEQLEQQKQP [YMR153W/NUP53] | 3.37 ± 0.056 | 3.35 ± 0.057 | 3.04 ± 0.049 | 3.15 ± 0.046
TWNGSPFDNSTEEKCKN [YJL039C/NUP192] | 3.1 ± 0.084 | 3.38 ± 0.081 | 3.26 ± 0.066 | 3.33 ± 0.073
KILSILNRSHFATTKAE [ECM29] | 2.68 ± 0.076 | 2.33 ± 0.048 | 2.4 ± 0.047 | 2.19 ± 0.037
NANRVFRTRFQDGTSVV [SMC2] | 2.74 ± 0.16 | 1.29 ± 0.1 | 2.31 ± 0.26 | 2.34 ± 0.085
FVIHIQEKNFQTGIFVY [RPB5] | 1.98 ± 0.062 | 1.58 ± 0.05 | 1.54 ± 0.16 | 1.88 ± 0.081
SPLLESDSIEKIVEIDR [PUP2] | 3.48 ± 0.11 | 3.08 ± 0.1 | 2.59 ± 0.15 | 3.49 ± 0.14
EKVFNAYPAAREQFLNA [FAS1] | 3.16 ± 0.084 | 3.19 ± 0.094 | 3.1 ± 0.077 | 3.22 ± 0.053
STLHMLGYTHIAINFTV [RPP1] | 1.5 ± 0.041 | 1.39 ± 0.037 | 1.45 ± 0.067 | 1.55 ± 0.041
YDPKDALKNACNSIINK [RPB11] | 3.32 ± 0.24 | 3.23 ± 0.14 | 3.2 ± 0.084 | 3.37 ± 0.15
QLIGSNIELHSLYTSRE [PUP1] | 3.33 ± 0.25 | 3.33 ± 0.2 | 3.34 ± 0.26 | 2.91 ± 0.2
DTQFTKLLDDNPTEFDW [SRB8] | 2.99 ± 0.089 | 3.04 ± 0.071 | 2.91 ± 0.058 | 2.91 ± 0.043
KKSKIQLLDIAEFKKEN [LIN1] | 1.42 ± 0.1 | 2.29 ± 0.13 | 2.44 ± 0.16 | 2.99 ± 0.11
CNERVPLSVATELMNRS [SRP72] | 2.43 ± 0.033 | 2.52 ± 0.044 | 2.26 ± 0.052 | 2.19 ± 0.036
HRTIVIRRAYLHYIPKY [RPS11A] | 1.87 ± 0.048 | 1.55 ± 0.042 | 1.84 ± 0.07 | 1.74 ± 0.031
LDSNFNLQREIDQAHVS [RPN14] | 2.49 ± 0.045 | 2.75 ± 0.061 | 2.56 ± 0.059 | 2.65 ± 0.054
LFGSKPQGSTTNGGLFG [YGR119C/NUP57] | 3.38 ± 0.086 | 3.47 ± 0.067 | 3.43 ± 0.045 | 3.28 ± 0.037
IFSVHGNTVVDGEGKVD [YCG1] | 3.12 ± 0.2 | 3.46 ± 0.18 |  | 
CSKSIPKDKAIKRMAIR [RPS26A] | 2.8 ± 0.069 | 2.96 ± 0.073 | 2.73 ± 0.065 | 2.85 ± 0.046
NSESDSKSDSDSEERDP [ITC1] | 3.14 ± 0.14 | 2.99 ± 0.2 | 3.01 ± 0.12 | 3.22 ± 0.12
KFQGVLESEAQKKATMS [RPC34] | 3.54 ± 0.18 | 3.01 ± 0.18 |  | 3.34 ± 0.11
QFGNACISLSGVPNYLV [SSN2] | 1.59 ± 0.077 | 2.05 ± 0.093 | 2.37 ± 0.21 | 2.21 ± 0.069
MSRPQVTVHSLTGEATA [RPL4A] | 1.59 ± 0.09 | 2.28 ± 0.07 | 1.88 ± 0.059 | 2.07 ± 0.082

— the supplement of paper PMC9732359
